Literature values, collected in publication PMC8699243.
Like-named read-outs stand apart in the source and are kept apart here. Each block holds one substance with its values, some of them ahead of it.

Assays:
[1] = target: t-PA (Homo sapiens) (UniProt P00750)
[2] = target: plasminogen (Homo sapiens) (UniProt P00747)
[3] = target: S100A10 (Homo sapiens) (UniProt P60903)
[4] = target: S100A4 (Homo sapiens) (UniProt P26447)
[5] = target: t-PA (Homo sapiens) (UniProt P00750); remark: listed apart in the source
[6] = target: plasminogen (Homo sapiens) (UniProt P00747); remark: listed apart in the source

Chain of UniProt P00750 (P00750 36-562): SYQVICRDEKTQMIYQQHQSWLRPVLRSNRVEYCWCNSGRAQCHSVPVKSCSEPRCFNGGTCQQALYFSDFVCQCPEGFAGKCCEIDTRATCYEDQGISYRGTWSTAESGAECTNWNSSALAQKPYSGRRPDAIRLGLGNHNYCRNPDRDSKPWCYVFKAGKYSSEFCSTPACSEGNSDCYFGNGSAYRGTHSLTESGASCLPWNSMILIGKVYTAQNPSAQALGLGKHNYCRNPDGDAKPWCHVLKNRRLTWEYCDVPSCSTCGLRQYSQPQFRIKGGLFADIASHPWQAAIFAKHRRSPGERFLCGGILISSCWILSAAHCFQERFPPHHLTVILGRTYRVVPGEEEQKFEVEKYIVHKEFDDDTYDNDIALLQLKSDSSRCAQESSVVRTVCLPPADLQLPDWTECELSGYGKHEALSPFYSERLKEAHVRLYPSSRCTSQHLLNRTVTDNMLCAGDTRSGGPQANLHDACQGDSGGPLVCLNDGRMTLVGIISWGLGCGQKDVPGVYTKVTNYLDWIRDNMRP
Chain of UniProt P00747 (P00747 20-810): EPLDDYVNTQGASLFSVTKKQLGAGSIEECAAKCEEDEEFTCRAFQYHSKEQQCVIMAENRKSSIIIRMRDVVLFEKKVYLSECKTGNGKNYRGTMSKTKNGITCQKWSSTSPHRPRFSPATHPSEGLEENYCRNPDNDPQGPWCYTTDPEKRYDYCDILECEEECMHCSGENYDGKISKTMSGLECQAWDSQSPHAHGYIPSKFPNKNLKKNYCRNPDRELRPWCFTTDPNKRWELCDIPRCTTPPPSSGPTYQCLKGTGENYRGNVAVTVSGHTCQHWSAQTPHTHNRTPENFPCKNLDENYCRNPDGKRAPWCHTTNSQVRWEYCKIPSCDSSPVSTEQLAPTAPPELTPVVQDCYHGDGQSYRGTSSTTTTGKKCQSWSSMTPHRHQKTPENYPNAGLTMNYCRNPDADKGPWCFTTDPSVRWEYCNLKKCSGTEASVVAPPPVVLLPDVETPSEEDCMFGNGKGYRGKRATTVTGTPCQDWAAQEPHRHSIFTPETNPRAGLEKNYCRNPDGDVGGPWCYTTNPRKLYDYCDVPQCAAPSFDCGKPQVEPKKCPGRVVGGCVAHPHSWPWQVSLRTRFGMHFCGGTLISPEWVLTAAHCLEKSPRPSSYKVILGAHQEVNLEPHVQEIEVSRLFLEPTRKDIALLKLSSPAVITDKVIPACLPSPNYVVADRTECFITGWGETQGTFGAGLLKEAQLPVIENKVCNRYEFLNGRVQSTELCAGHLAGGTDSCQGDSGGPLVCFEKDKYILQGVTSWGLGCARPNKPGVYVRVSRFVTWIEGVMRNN
Chain of UniProt P26447 (P26447 2-101): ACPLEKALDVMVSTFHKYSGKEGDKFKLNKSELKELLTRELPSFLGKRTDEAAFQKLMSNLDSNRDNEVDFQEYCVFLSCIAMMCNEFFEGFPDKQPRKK

- Kd [1]: 680 nM
- Kd [2]: 110 nM
Substance: AIIt (Annexin A2/S100A10 heterotetramer) (from UniProt P07355)

- Kd [3]: 13 nM
- Kd [4]: 5000 nM
Substance: Annexin A2 (from UniProt P07355)

- Kd [5]: 450 nM
- Kd [6]: 1810 nM
Substance: S100A10 (from UniProt P60903)
